Laboratory results reported in patent publication US20110229458A1 (published 2011).

B1: DMS7148 (other)
chain: HGEGTFTSDVSSYLEGQAAKEFIADLVEGRGPSSDIQMTQSPSSLSASVGDRVTITCRASQWIGSQLSWYQQKPGKAPKLLIMWRSSLQSGVPSRFSGSGSGTDFTLTISSLQPEDFATYYCAQGAALPRTFGQGTKVEIKR
B2: DMS7161 (other)
chain: HGEGTFTSDVSSYLEGQAAKEFIADLVEGRGPSSDIQMTQSPSSLSASVGDRVTITCRASQWIGSQLSWYQQKPGKAPKLLIMWRSSLQSGVPSRFSGSGSGTDFTLTISSLQPEDFATYYCAQGLRHPKTFGQGTKVEIKR

Assays:
[1] = target: T1, human GLP-1 receptor (human, UniProt P43220 24-463); assay: cell-based or functional assay
[2] = target: T1, human GLP-1 receptor; assay: cell-based or functional assay; remark: listed apart in the source

T1 sequence (P43220 24-463): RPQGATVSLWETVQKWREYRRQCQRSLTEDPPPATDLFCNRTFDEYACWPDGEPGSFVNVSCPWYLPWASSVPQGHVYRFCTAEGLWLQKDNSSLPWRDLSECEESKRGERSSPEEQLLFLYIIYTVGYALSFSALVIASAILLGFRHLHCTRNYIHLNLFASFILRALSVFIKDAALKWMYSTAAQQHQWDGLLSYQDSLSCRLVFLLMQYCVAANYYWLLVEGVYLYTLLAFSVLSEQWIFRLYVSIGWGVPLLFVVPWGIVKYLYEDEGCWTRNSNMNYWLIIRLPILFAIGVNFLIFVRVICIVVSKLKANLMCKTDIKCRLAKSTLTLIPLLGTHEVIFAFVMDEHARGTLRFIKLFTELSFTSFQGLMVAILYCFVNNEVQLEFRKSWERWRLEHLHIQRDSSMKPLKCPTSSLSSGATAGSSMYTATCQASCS

| Binder | pEC50 (6CRE luciferase reporter, CHO 6CRE GLP1R cells) [1] | EC50 (M) (luciferase reporter, CHO 6CRE GLP1R cells); preparation DMS7161 A [2] | EC50 (M) (luciferase reporter, CHO 6CRE GLP1R cells); preparation DMS7161 B [2] | pEC50 (luciferase reporter, CHO 6CRE GLP1R cells); preparation DMS7161 A [2] | pEC50 (luciferase reporter, CHO 6CRE GLP1R cells); preparation DMS7161 B [2] |
| --- | --- | --- | --- | --- | --- |
| B1 | 9.45 | – | – | – | – |
| B2 | – | 3.4e-09 M | 1.6e-09 M | 8.47 | 8.79 |
